Data as given in paper PMC9313131.
pKd: −log10 of the molar value.

Assays:
[1] = target: CDC37 (cell division cycle 37), wild type, full-length (human) (UniProt Q16543); assay: ITC; in most cases sBRAF construct at 350 μM injected into 30 μM CDC37 at 20 °C; 20 mM Tris pH 7.5, 1 mM EDTA, 200 mM NaCl; ITC200
[2] = target: sBRAF L597R (human) (UniProt P15056); assay: SEC; Superdex 200 Increase 10/300 GL; 50 mM HEPES pH 7.5, 300 mM NaCl, 0.5 mM TCEP, 1 mM EDTA; relative molecular mass against gel-filtration standards

Sequence of CDC37 (cell division cycle 37), wild type, full-length (human) (Q16543 whole entry): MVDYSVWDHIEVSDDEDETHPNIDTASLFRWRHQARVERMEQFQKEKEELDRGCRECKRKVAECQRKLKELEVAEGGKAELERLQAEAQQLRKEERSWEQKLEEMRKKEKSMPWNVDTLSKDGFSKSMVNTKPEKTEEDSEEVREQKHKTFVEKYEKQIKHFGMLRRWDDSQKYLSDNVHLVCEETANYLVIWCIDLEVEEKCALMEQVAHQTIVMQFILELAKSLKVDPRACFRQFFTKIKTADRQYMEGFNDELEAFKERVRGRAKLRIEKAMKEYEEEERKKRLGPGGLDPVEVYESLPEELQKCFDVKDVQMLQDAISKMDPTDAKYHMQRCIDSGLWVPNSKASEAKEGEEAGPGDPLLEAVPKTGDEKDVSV

Row | Substance | pKd [1] | stoichiometry N [2]
1 | sBRAF, solubilized version of BRAF kinase domain (residues 423-723), V600 background (from UniProt P15056 423-723) (domain or fragment) | 6.00 | 
2 | sBRAF F595A (from UniProt P15056 423-723) (domain or fragment) | 6.30 | 
3 | sBRAF T599W-V600E (from UniProt P15056 423-723) (domain or fragment) | 6.64 | 
4 | sBRAF L597R (from UniProt P15056 423-723) (domain or fragment) |  | 2
5 | sBRAF D594V (from UniProt P15056 423-723) (domain or fragment) | 5.92 | 
6 | sBRAF L597R-V600E (from UniProt P15056 423-723) (domain or fragment) | 6.47 | 
7 | sBRAF L597A (from UniProt P15056 423-723) (domain or fragment) | 6.64 | 
8 | sBRAF F595V (from UniProt P15056 423-723) (domain or fragment) | 5.85 | 
9 | sBRAF T599E-V600E-S602D (from UniProt P15056 423-723) (domain or fragment) | 6.33 | 
